Measured values reported in patent US20170369545A1 (CENTRE NATIONAL DE LA RECHERCHE SCIENTIFIQUE, published 2017).
Numbering of substitutions follows the chain as printed. One block for each binder: values may come before it.

How the values were obtained:
[1] = target: T1, tyrosine kinase receptor MET on HeLa cells (UniProt P08581 25-1390, limits assumed); test: cell-based or functional assay
[2] = target: T1, tyrosine kinase receptor MET on HeLa …; test: cell-based or functional assay; remark: listed apart in the source

T1 sequence (P08581 25-1390 limits assumed): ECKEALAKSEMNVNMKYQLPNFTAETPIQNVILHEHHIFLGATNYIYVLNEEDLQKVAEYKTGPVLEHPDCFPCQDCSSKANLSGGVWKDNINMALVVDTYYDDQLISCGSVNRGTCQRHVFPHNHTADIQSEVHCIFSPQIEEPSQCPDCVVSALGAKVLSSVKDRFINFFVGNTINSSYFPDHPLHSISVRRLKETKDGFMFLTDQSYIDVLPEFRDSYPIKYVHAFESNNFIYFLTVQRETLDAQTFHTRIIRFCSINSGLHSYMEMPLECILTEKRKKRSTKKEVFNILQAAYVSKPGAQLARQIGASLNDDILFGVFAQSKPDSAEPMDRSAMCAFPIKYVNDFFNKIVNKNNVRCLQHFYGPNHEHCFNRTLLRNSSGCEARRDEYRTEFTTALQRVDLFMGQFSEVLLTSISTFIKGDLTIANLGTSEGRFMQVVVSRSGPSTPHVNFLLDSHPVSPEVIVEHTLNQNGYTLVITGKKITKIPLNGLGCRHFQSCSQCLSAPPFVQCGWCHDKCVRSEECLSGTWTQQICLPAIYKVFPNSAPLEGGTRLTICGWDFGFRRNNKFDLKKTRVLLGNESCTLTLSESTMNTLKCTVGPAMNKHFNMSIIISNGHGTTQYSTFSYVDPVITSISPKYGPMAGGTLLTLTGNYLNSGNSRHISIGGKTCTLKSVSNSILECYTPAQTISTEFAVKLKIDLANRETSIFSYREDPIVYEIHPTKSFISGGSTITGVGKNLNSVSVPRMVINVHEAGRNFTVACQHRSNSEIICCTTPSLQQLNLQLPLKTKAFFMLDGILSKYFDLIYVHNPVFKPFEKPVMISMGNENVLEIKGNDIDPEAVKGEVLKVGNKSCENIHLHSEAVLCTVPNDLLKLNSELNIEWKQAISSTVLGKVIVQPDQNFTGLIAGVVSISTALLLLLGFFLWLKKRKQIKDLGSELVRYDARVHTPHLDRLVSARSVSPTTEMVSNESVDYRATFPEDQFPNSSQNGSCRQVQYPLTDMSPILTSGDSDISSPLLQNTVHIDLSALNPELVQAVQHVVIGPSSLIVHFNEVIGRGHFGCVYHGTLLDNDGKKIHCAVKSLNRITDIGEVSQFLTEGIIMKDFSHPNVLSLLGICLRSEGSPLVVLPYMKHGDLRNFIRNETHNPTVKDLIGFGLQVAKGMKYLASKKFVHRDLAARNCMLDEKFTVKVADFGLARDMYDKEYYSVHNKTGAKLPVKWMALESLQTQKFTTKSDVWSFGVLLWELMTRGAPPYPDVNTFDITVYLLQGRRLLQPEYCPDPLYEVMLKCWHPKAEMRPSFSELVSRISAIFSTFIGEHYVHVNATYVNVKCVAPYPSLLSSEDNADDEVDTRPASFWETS

EC50 (read off the curve), Akt phosphorylation (P-AKT) [P-AKT] [1]: ~30 pM
EC50 (read off the curve), ERK phosphorylation (P-ERK) [P-ERK] [1]: ~30 pM
ERK and Akt phosphorylation in HeLa cells (western blot, ALPHAScreen) [2]: ~100 pM
MET phosphorylation in HeLa cells (western blot) [2]: 100 pM
agonist activity against NK1 (ERK and Akt phosphorylation in HeLa cells) [2]: ≥ 10 times (against NK1)
B1: HGF/SF-K1K1 (C-terminally tagged K1K1 protein, 6xHis tag) (designed binder)
chain: MAIRNCIIGKGRSYKGTVSITKSGIKCQPWSSMIPHEHSFLPSSYRGKDLQENYCRNPRGEEGGPWCFTSNPEVRYEVCDIPQCSEVECIIGKGRSYKGTVSITKSGIKCQPWSSMIPHEHSFLPSSYRGKDLQENYCRNPRGEEGGPWCFTSNPEVRYEVCDIPQCSEVEHHHHHH

ERK and Akt phosphorylation in HeLa cells (western blot, ALPHAScreen) [2]: ~100 pM
MET phosphorylation in HeLa cells (western blot) [2]: 100 pM
agonist activity against NK1 (ERK and Akt phosphorylation in HeLa cells) [2]: ≥ 10 times (against NK1)
B2: K1K1 variant 2 (long linker variant) (designed binder)
chain: MAIRNCIIGKGRSYKGTVSITKSGIKCQPWSSMIPHEHSFLPSSYRGKDLQENYCRNPRGEEGGPWCFTSNPEVRYEVCDIPQCGGGGSLVPRGSGGGGSCIIGKGRSYKGTVSITKSGIKCQPWSSMIPHEHSFLPSSYRGKDLQENYCRNPRGEEGGPWCFTSNPEVRYEVCDIPQCSEVE

ERK and Akt phosphorylation in HeLa cells (western blot, ALPHAScreen) [2]: ~100 pM
MET phosphorylation in HeLa cells (western blot) [2]: 100 pM
agonist activity against NK1 (ERK and Akt phosphorylation in HeLa cells) [2]: ≥ 10 times (against NK1)
B3: K1K1 variant 3 (GS-linker variant) (designed binder)
chain: MAIRNCIIGKGRSYKGTVSITKSGIKCQPWSSMIPHEHSFLPSSYRGKDLQENYCRNPRGEEGGPWCFTSNPEVRYEVCDIPQCGSGGCIIGKGRSYKGTVSITKSGIKCQPWSSMIPHEHSFLPSSYRGKDLQENYCRNPRGEEGGPWCFTSNPEVRYEVCDIPQCSEVE

ERK and Akt phosphorylation in HeLa cells (western blot, ALPHAScreen) [2]: ~100 pM
MET phosphorylation in HeLa cells (western blot) [2]: 100 pM
agonist activity against NK1 (ERK and Akt phosphorylation in HeLa cells) [2]: ≥ 10 times (against NK1)
B4: K1K1 variant 1 (tagless variant) (designed binder)
chain: B3 chain with G85S, S86E, G87V, G88E
